Data on twelve molecules can be found in patent publication US20250027068A1 (published 2025).

Sequences and labels used below:
B1: PRT-205 (enzyme)
chain: MEVVEVWPYGQNPNGKTEILSQTEDSESLQRLRDIEDFQAEKKKEGVVYTKWLDGVDVDDHDFRKIVDGNIAYYATPLLNGRGFYDINKDFNRDSDKCAAAVAANMFHYWLDRNRDNVDRFLKQNPEKHGIIELPDGQLKLSDFLNTYESDNGYRDKSKLFDFISNNFNGPVWTDKLLDNYINGYAYNYKYGRTIEDPTKNTSKINFFKEVFNEKILTNNHSIRNYNTFSDLLSEALYTGKAIGLSYGPAGLRHSLGHIISVWGADLDADGNVVAIYVTDSDDKKLTIGDERVGLKRYKVSSDDENRLRLTAYEETHNTGGQIRGIYTLDTGKQAWADYFDKTEQTGTDQAEQLEHHHHHH
B2: PRT-194 (enzyme)
chain: MANQEIRYSEVTPYHVTSVWTKGVTPPDHDFANFTQGEDVFHAPYVANQGWYDITKTFNGKDDLLCGAATAGNMLHWWFDQNKDQIKRYLEEHPEKQKINFNGEQMFDVKEAIDTKNHQLDSKLFEYFKEKAFPYLSTKHLGVFPDHVIDMFINGYRLSLTNHGPTPVKEGSKDPRGGIFDAVFTRGDQSKLLTSRHDFKEKNLKEISDLIKKELTEGKALGLSHTYANVRHSINHVINLWGADFDSNGNLKAIYVTDSDDKKLTISNASIGMKKYFVGVNSAGKVAISAKEIKEDNIGAQVLGLFTLSTGQDSWNQTN
B3: PRT-195 (enzyme)
chain: MANQEIRYSEVTPYHVTSVWTKGVTPPDHDFRKIVDGEDVFHAPYVANQGWYDITKTFNGKDDLLCGAATAGNMLHWWFDQNKDQIKRYLEEHPEKQKINFNGEQMFDVKEAIDTKNHQLDSKLFEYFKEKAFPYLSTKHLGVFPDHVIDMFINGYRLSLTNHGPTPVKEGSKDPRGGIFDAVFTRGDQSKLLTSRHDFKEKNLKEISDLIKKELTEGKALGLSHTYANVRHSINHVINLWGADFDSNGNLKAIYVTDSDDKKLTIGDERIGMKKYFVGVNSAGKVAISAKEIKEDNIGAQVLGLFTLSTGQDSWNQTN
B4: PRT-196 (enzyme)
chain: MEVVEVWPYGQNPNGKTEILSQTEDSESLQRLRDIEDFQAEKKMQNVVYTKWLDGVDVKDHDFRKIVDGNIAYYATPLLNGRGFYDINKDFNRDSDKCAAAVAANMFHYWLDINRDNVDRFLRQNPEKHGIIELPDGQLKLSDFLNTYESDHGYRDKSKLFDFISNNFNGPVWTDKLLDNYINGYAYNYKYGRTIEDPTKNTSKINFFKEVFNEKILTNNHSIRNQNEFSVLLSEALYTGKAIGLSYGPAGLRHSLGHIISVWGADLDADGNVVAIYVTDSDDKKLTIGDERVGLKRYKISTDDENRLRLTAYEETHNTGGQIRGLWTLDTGKYAWADYFDKTEQTGTDQAEQLEHHHHHH
B5: PRT-199 (enzyme)
chain: MEVVEVWPYGQNPNGKTEILSQTEDSESLQRLRDIEDFQAEKKKQNVVYTKWLDGVDVKDHDFRKIVDGNIAYYATPLLNGRGFYDINKDFNRDSDKCAAAVAANMFHYWLDRNRDNVDRFLRQNPEKHGIIELPDGQLKLSDFLNTYESDDGYRDKSKLFDFISNNFNGPVWTDKLLDNYINGYAYNYKYGRTIEDPTKNTSKINFFKEVFNEKILTNNHSIRNQNEFSVLLSEALYTGKAIGLSYGPAGLRHSLGHIISVWGADLDADGNVVAIYVTDSDDKKLTIGDERVGLKRYKISTDDEGRLRLTAYEETHNTGGQIRGLWTLDTGKQAWADYFDKTEQTGTDQAEQLEHHHHHH
B6: PRT-204 (enzyme)
chain: MEVVEVWPYGQNPNGKTEILSQTEDSESLQRLRDIEDFQAEKKMQNVVYTKWLDGVTVKDHDFRKIVDGNIAYYATPLLNGRGFYDINKDFNRDSDKCAAAVAANMFHYWLDRNRDNVDRFLSQNPEKHGIIELPDGQLKLSDFLNTYESDNGYRDKSKLFDFISNNFNGPVWTDKLLDNYINGYAYNYKYGRTIEDPTKNTSKINFFKEVFNEKILTNIHSIRNQNEFSDLLSEALYTGKAIGLSYGPAGLRHSLGHIISVWGADLDADGNVVAIYVTDSDDKKLTIGDERVGLKRYKISTDDEGRARLTAYEETDNTGGQIRGLETLDTGKYAWADYFDKTEQTGTDQAEQLEHHHHHH
B7: PRT-197 (enzyme)
chain: MEVVEVWPYGQNPNGKTEILSQTEDSESLQRLRDIEDFQAEKKMQNVVYTKWLDGVDVKDHDFRKIVDGNIAYYATPLLNGRGFYDINKDFNRDSDKCAAAVAANMFHYWLDINRDNVDRFLRQNPEKHGIIELPDGQLKLSDFLNTYESDHGYRDKSKLFDFISNNFNGPVWTDKLLDNYINGYAYNYKYGRTIEDPTKNTSKINFFKEVFNEKILTNNHSIRNQNEFSDLLSEALYTGKAIGLSYGPAGLRHSLGHIISVWGADLDADGNVVAIYVTDSDDKKLTIGDERVGLKRYKISTDDENRARLTAYEETDNTGGQIRGLYTLDTGKQAWADYFDKTEQTGTDQAEQLEHHHHHH
B8: PRT-203 (enzyme)
chain: MEVVEVWPYGQNPNGKTEILSQTEDSESLQRLRDIEDFQAEKKKQNVVYTKWLDGVDVKDHDFRKIKDGNIEYYATPLLNGRGFYDINKDFNRDSDKCAAAVAANMFHYWLDRNRDNVDRFLRQNPEKHGIIELPDGQLKLSDFLNTYESDDGYRDKSKLFDFISNNFNGPVWTDKLLDNYINGYAYNYKYGRTIEDPTKNTSKINFFKEVFNEKILTNNHSIRNQNEFSVLLSEALYTGKAIGLSYGPAGLRHSLGHIISVWGADLDADGNVVAIYVTDSDDKKLTIGDERVGLKRYKISTDDEGRARLTAYEETHNTGGQIRGLWTLDTGKQAWADYFDKTEQTGTDQAEQLEHHHHHH
B9: PRT-200 (enzyme)
chain: MEVVEVWPYGQNPNGKTEILSQTEDSESLQRLRDIEDFQAEKKMQNVVYTKWLDGVDVKDHDFRKIVDGNIAYYATPLLNGRGFYDINKDFNRDSDKCAAAVAANMFHYWLDINRDNVDRFLRQNPEKHGIIELPDGQLKLSDFLNTYESDHGYRDKSKLFDFISNNFNGPVWTDKLLDNYINGYAYNYKYGRTIEDPTKNTSKINFFKEVFNEKILTNNHSIRNQNEFSDLLSEALYTGKAIGLSYGPAGLRHSLGHIISVWGADLDADGNVVAIYVTDSDDKKLTIGDERVGLKRYKISTDDENRARLTAYEETDNTGGQIRGLWTLDTGKQAWADYFDKTEQTGTDQAEQLEHHHHHH
B10: PRT-201 (enzyme)
chain: MEVVEVWPYGQNPNGKTEILSQTEDSESLQRLRDIEDFQAEKKKQNVVYTKWLDGVDVKDHDFRKIKDGNIEYYATPLLNGRGFYDINKDFNRDSDKCAAAVAANMFHYWLDRNRDNVDRFLRQNPEKHGIIELPDGQLKLSDFLNTYESDDGYRDKSKLFDFISNNFNGPVWTDKLLDNYINGYAYNYKYGRTIEDPTKNTSKINFFKEVFNEKILTNNHSIRNQNEFSVLLSEALYTGKAIGLSYGPAGLRHSLGHIISVWGADLDADGNVVAIYVTDSDDKKLTIGDERVGLKRYKISTDDEGRARLTAYEETHNTGGQIRGLYTLDTGKQAWADYFDKTEQTGTDQAEQLEHHHHHH
B11: PRT-198 (enzyme)
chain: MEVVEVWPYGQNPNGKTEILSQTEDSESLQRLRDIEDFQAEKKKQGVVYTKWLDGVDVKDHDFRKIVDGNIAYYATPLLNGRGFYDINKDFNRDSDKCAAAVAANMFHYWLDINRDNVDRFLRQNPEKHGIIELPDGQLKLSDFLNTYESDHGYRDKSKLFDFISNNFNGPVWTDKLLDNYINGYAYNYKYGRTIEDPTKNTSKINFFKEVFNEKILTNNHSIRNQNEFSDLLSEALYTGKAIGLSYGPAGLRHSLGHIISVWGADLDADGNVVAIYVTDSDDKKLTIGDERVGLKRYKISTDDENRLRLTAYEETHNTGGQIRGLYTLDTGKQAWADYFDKTEQTGTDQAEQLEHHHHHH
B12: PRT-202 (enzyme)
chain: MEVVEVWPYGQNPNGKTEILSQTEDSESLQRLRDIEDFQAEKKKQNVVYTKWLDGVDVKDHDFRKIVDGNIAYYATPLLNGRGFYDINKDFNRDSDKCAAAVAANMFHYWLDINRDNVDRFLRQNPEKHGIIELPDGQLKLSDFLNTYESDYGYRDKSKLFDFISNNFNGPVWTDKLLDNYINGYAYNYKYGRTIEDPTKNTSKINFFKKVFNEKILTNIHSIRNQNEFSDLLSEALYTGKAIGLSYGPAGLRHSLGHIISVWGADLDADGNVVAIYVTDSDDKKLTIGDERVGLKRYKISTDDEGRLRLTAYEETDNTGGEIRGLYTLDTGKQAWADYFDKTEQTGTDQAEQLEHHHHHH
Also: test concentration or dose not given here.

For the experiment, the target named is pooled human IgG (human). The experiment is described as follows: cell-based or functional assay.
B1: the “Enzyme Activity Endpoint Assay (purified): Fab′2” value stood at 127 ng/µL, the “Enzyme Activity Endpoint Assay (purified): Fc” value came to 216 ng/µL, the “Enzyme Activity Endpoint Assay (purified): IgG” value came out at 1090 ng/µL and the “Enzyme Activity Endpoint Assay (purified): scIgG” value is 278 ng/µL.
Take B2: the “Enzyme Activity Endpoint Assay (purified): Fab′2” value turned out to be 0 ng/µL, the “Enzyme Activity Endpoint Assay (purified): Fc” value was found to be 12 ng/µL, the “Enzyme Activity Endpoint Assay (purified): IgG” value was 301 ng/µL and the “Enzyme Activity Endpoint Assay (purified): scIgG” value worked out at 0 ng/µL.
Consider B3, for which the “Enzyme Activity Endpoint Assay (purified): Fab′2” value was determined as 0 ng/µL, the “Enzyme Activity Endpoint Assay (purified): Fc” value came to 30 ng/µL, the “Enzyme Activity Endpoint Assay (purified): IgG” value is 829 ng/µL and the “Enzyme Activity Endpoint Assay (purified): scIgG” value worked out at 15 ng/µL.
For B4, in that order: 152 ng/µL, 498 ng/µL, 707 ng/µL and 504 ng/µL.
For B5, in that order: 95 ng/µL, 473 ng/µL, 797 ng/µL and 544 ng/µL.
Consider B6, for which the “Enzyme Activity Endpoint Assay (purified): Fab′2” value was 0 ng/µL, the “Enzyme Activity Endpoint Assay (purified): Fc” value is 0 ng/µL, the “Enzyme Activity Endpoint Assay (purified): IgG” value came out at 2260 ng/µL and the “Enzyme Activity Endpoint Assay (purified): scIgG” value is 0 ng/µL.
Regarding B7, the “Enzyme Activity Endpoint Assay (purified): Fab′2” value worked out at 0 ng/µL, the “Enzyme Activity Endpoint Assay (purified): Fc” value is 179 ng/µL, the “Enzyme Activity Endpoint Assay (purified): IgG” value is 1800 ng/µL and the “Enzyme Activity Endpoint Assay (purified): scIgG” value was determined as 121 ng/µL.
For B8 the same measures were 0 ng/µL, 0 ng/µL, 2130 ng/µL and 0 ng/µL.
For B9, in that order: 0 ng/µL, 0 ng/µL, 2510 ng/µL and 0 ng/µL.
For B10 the same measures were 0 ng/µL, 0 ng/µL, 2720 ng/µL and 0 ng/µL.
For B11, the “Enzyme Activity Endpoint Assay (purified): Fab′2” value was 621 ng/µL, the “Enzyme Activity Endpoint Assay (purified): Fc” value was 0 ng/µL, the “Enzyme Activity Endpoint Assay (purified): IgG” value came to 2320 ng/µL and the “Enzyme Activity Endpoint Assay (purified): scIgG” value is 0 ng/µL.
Consider B12, for which the “Enzyme Activity Endpoint Assay (purified): Fab′2” value is 25 ng/µL, the “Enzyme Activity Endpoint Assay (purified): Fc” value was 402 ng/µL, the “Enzyme Activity Endpoint Assay (purified): IgG” value worked out at 1130 ng/µL and the “Enzyme Activity Endpoint Assay (purified): scIgG” value was found to be 553 ng/µL.
